B1: wild type AcrB (Escherichia coli multidrug transporter AcrB) [E. coli] / itself (parent)
chain: MPNFFIDRPIFAWVIAIIIMLAGGLAILKLPVAQYPTIAPPAVTISASYPGADAKTVQDTVTQVIEQNMNGIDNLMYMSSNSDSTGTVQITLTFESGTDADIAQVQVQNKLQLAMPLLPQEVQQQGVSVEKSSSSFLMVVGVINTDGTMTQEDISDYVAANMKDAISRTSGVGDVQLFGSQYAMRIWMNPNELNKFQLTPVDVITAIKAQNAQVAAGQLGGTPPVKGQQLNASIIAQTRLTSTEEFGKILLKVNQDGSRVLLRDVAKIELGGENYDIIAEFNGQPASGLGIKLATGANALDTAAAIRAELAKMEPFFPSGLKIVYPYDTTPFVKISIHEVVKTLVEAIILVFLVMYLFLQNFRATLIPTIAVPVVLLGTFAVLAAFGFSINTLTMFGMVLAIGLLVDDAIVVVENVERVMAEEGLPPKEATRKSMGQIQGALVGIAMVLSAVFVPMAFFGGSTGAIYRQFSITIVSAMALSVLVALILTPALCATMLKPIAKGDHGEGKKGFFGWFNRMFEKSTHHYTDSVGGILRSTGRYLVLYLIIVVGMAYLFVRLPSSFLPDEDQGVFMTMVQLPAGATQERTQKVLNEVTHYYLTKEKNNVESVFAVNGFGFAGRGQNTGIAFVSLKDWADRPGEENKVEAITMRATRAFSQIKDAMVFAFNLPAIVELGTATGFDFELIDQAGLGHEKLTQARNQLLAEAAKHPDMLTSVRPNGLEDTPQFKIDIDQEKAQALGVSINDINTTLGAAWGGSYVNDFIDRGRVKKVYVMSEAKYRMLPDDIGDWYVRAADGQMVPFSAFSSSRWEYGSPRLERYNGLPSMEILGQAAPGKSTGEAMELMEQLASKLPTGVGYDWTGMSYQERLSGNQAPSLYAISLIVVFLCLAALYESWSIPFSVMLVVPLGVIGALLAATFRGLTNDVYFQVGLLTTIGLSAKNAILIVEFAKDLMDKEGKGLIEATLDAVRMRLRPILMTSLAFILGVMPLVISTGAGSGAQNAVGTGVMGGMVTATVLAIFFVPVFFVVVRRRFSRKNEDIEHSHTVDHH

Variants of: B1
Assay: BN-PAGE
Conditions: with itself; read off a plot

Going from chain 1 A209V P223G to chain 1 P223G, the screen value falls from 0.4 to 0.26.

First: chain 1 G257V P223G
Second: chain 1 D256N P223G
The screen value of the first is lower: 0.15 for the first, 0.41 for the second.

Going from chain 1 M662I P223G to chain 1 D788K P223G, the screen value falls from 0.19 to 0.15.

Compared with chain 1 P800S P223G, chain 1 T199M P223G is higher in screen value: 0.11 for the first, 0.7 for the second.

Going from chain 1 E810K P223G to chain 1 Q737L P223G, the screen value falls from 0.11 to 0.075.
